Experimental data published in the nanobody polyreactivity screen of Harvey et al. (2022).

Assay: yeast display, Sf9 membrane polyspecificity reagent, FACS + sequencing; frameworks hold sequencing errors
Procedure, shortened: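 Galactose induction of a Saccharomyces cerevisiae BJ5465 synthetic nanobody display library ran 36–48 hours. The cells were then stained for 1 hour at 4 °C with 10% biotinylated, detergent-solubilized Sf9 membrane reagent, pulled down on streptavidin microbeads and FACS-sorted into low and high (top ~1%) gates on expression and reagent-binding fluorescence. Labels for polyreactivity follow the gate of origin.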

Sequence | polyreactivity (PSR sort gate)
QVQLVESGGGLVQAGGSLRLSCAASGIIFQGYVMGWYRQAPGKERELVAVISRTGGSTYYADSVKGRFTISRDNAKNTVYLQMNSLKPEDTAVYYSSAGTPRLRYLQGHRMNYWGKGTQVTVSS | high polyreactivity
QVQLVESGGGLVQSGGSLRLSCAASGSTLTFNAMGWYRQAPGKERELVAAISWSDTDTYYADSVKGRFTISRDNAKNTVYLQMNSLKPEDTAVYYCAATLSAYEMDYWGQGTQVTVSS | low polyreactivity
QVQLVESGGGLVQAGGSLRLSCAASGLIFGRNVMGWYRQAPGKERELVAAISWSGGRTYYADSVKGRFTISRDNEKNTVYLQMNSLKPEDTAVYYCAAGYPYYYWTPYYYWGQGTQVTVSS | high polyreactivity
QVQLLESGGGLVQARGSLRLSCAASGRNFVPYVMGWYRQAPGKERELVASISDSDTSTYYADSVKGRFTISRDNAKNTVYLQMNSLKPEDTAVYYCNVDYWGQGTQVTVSS | low polyreactivity
QVQLVESGGGLVQAGGSLRLSCAASGRIFSSYAMGWYRQAPGKERELVAAISRGGGRTYYADSVKGRFTISRDNAKNTVYLQMNSLKPEDTAVYYCATVVRSAAYAFDYWGQGTQVTVSS | high polyreactivity
QVQLVESGGGLVQAGGSLRLSCAASGRIFIYYAMGRYRQAPGKERELVAGIDYSGGSTYYADSVKGRFTISRDNAKNTVYLQMNSLKPEDTAVYFCAAGKYRHYYGRSFYRFDYWGKGTQVTVSS | high polyreactivity
QVQLVESGGGLGQAGGSLRLSCAASGSIFYSYAMGSYRQATGKERELVAAINWSGGSTYYADSVKGRFTISRDNAKNTVSLLMNSLKPEDTAVYYCAAGPGDSGDDYWGQCTQVTVSS | low polyreactivity
QVQLVESGGGLVQAGGSLSLSSAASGRTFSGYAMGWYRQAPGKERELVAAIDRGDGTNYADSVKGRFTISRDNAKNTVYLQMNSLKPEDTAVYYCAADYSYGSTSHTYTGFDYWGQGTQVTVSS | low polyreactivity
QVQLVESGGGLVQAGGSLRLSCAASGSIFRGYTMGWYRQAPGKERELFAAISTRGGSTYYADSVKGRFTISRDNAKNTVYLQMNSLKPEDTAVYYCNARSRGRASGYDYWGQGTQVTVSS | high polyreactivity
QVQLVESGGGLVQAGGSLRLSCAASGYTFYYNTMGWYRQAPGKERELVARINSAGRTNYADSVKGRFTISRDNAKNTVYLQMNSLKPKDTAVYYCAADGPANPDELKVNDFDYWGQGTQVTVSS | high polyreactivity
QVQLVESGGGLVQAGGSLRLICAASGRTFRSNDMGWYRQAPGKERELVAANSLGTGTTYYADSVKGRFTISRDNAKNTVYLQMNSLKPEDTAVYYCHTDYRPIDTEYTSGYDYWGQGTQVTVSS | low polyreactivity
QVQLVESGGGLVQAGGSLRLSCAASGITFKTYAMGWYRQAPGKERELVATINRGSRTNYADSVKGRFTISRDNAKNTVYLQMNSLKPEDTAVYYCAAEYVTYISSEMDYWGQGTQVTVSS | low polyreactivity
QVQLVESGGGLVHAGGSLRLSCAASGFIFYGNAMGWYRQAPGKERELVAAITWSSGSTYYADSVKGRFTISRYNAKNTVYLQMNSLSPEDTAVYYSNSEWSAKRPYPSRYYFNLGYWGQGTQVTESS | high polyreactivity
QVQLVESGGGLVQAGGSLRLSCAASGRIFEWNAMGWYRQAPGKERELVAAISWSGGSTYYADSVKGRFTISRDNAKNTVYLQMNSLKPEDTAVYYCAALTYRWSARDYWGQGTQVTVSS | high polyreactivity
QDQLVESGGGLVQAGGSLRLSCAASGSIFFARYSMGWYTQAPGKERELVAAITRATSTTYADSVKGRFTISRDNAKNTVYLQMKSLKPEDTAVYYCNADPAYQFDYWGQGTQVTVSS | high polyreactivity
QVQLQESGGGLVQAGGSLRLICAASCTISQEDWMGWYRQAPGKEREFVAAIGLGSNTNYADSLKGRFTISRDNAKITVYLQMNSLKPEDTAVYYCNNDSTNNPFQYDYWGQGTQVTVSS | low polyreactivity
QVHLVESGGGLVQAGGSLRLSCAASGITFRRYGMGWYRQAPGKERELVATITSSVGSRTYYADSVKGRFTISRDNAKNTVYLQMNSLKPEDTAVYYCAADHRVYDYEYWGQGTQVTVSS | low polyreactivity
QVQLVESRGGLVQAGGSLRLSCAPSGIIFVRYAMGWYRQAPGKETELVAAISSSGGSTYYADSVKGRFTISRDNAKKTVYLQMNSLKPEDTAVYYCNARHRQWARGYWGQGTQVTVSS | high polyreactivity
QVQLVESGGGLVQAGGSLRLSCAASGRIFPPNAMGWSRQAPGKERELVAAITRGGSTYYADSVKGRFTISRDNAKNTVYLQMNSLKPEDTAVYYCATVPWYIKVGQKRNDYWGQGTQVTVSS | high polyreactivity
QVQLVESGGGLVQAGGSLRLSCAASGIIFGPNAMGWYRQAPGKERELVAGIDWSTDSTYYADSVKGRFTLSRDNAKNTVYLQMNSLKPEDTAVYYCAVAENKRFGSVGYYYWGQGTQVTVSS | low polyreactivity
QVQLEESGGGLVQAGGSLRLSCAASGRTFRYNAMGWYRQAPGKERELVVAINWSGGSTYYADSVKGRFTISRDNAKNTVYLQMNSLKPEDTAVYYCAAEPTGWVWYAGYGYYWGQGTRVTVSS | high polyreactivity
QDQLVESGGGLVQAGGSLRLSCAASGSIFSYYAMGWYRHAPAKDRELVAAITGVGGTNYADSVKGRFTISRDNAKNTVYLQMNSLKPEDTAVYYCAARQYWRRYQYYYWGQGTQVTVSS | high polyreactivity

Sequence | polyreactivity (PSR sort gate)
QVQLVESGGGLVQAGGSLRLSCAASGITFDYYAMGWYRQAPGKERELVAAIRSGGSTNYADSVKGRFTISRDNAKNTVYLQMNSLKPVDTAVYYCAAVRYYPWYDYWGQGTQVTVSS | high polyreactivity
QVQLVESGGGLVQAGGSLRLSCAASGRIFSKYAMGWYRQAPGKERELVAAITSGGRTYYADSVKGRFTISRDNAKNTVYLQMNSLIPEDTAVYYCAARYVQVVRKFGYWGQGTQVTVSS | high polyreactivity
QVQLVESGGGLVQAGGRLRLSCAASGLIFWFNTMGWYRQAPGKERELVAAITSGGGSTYYADSVKGRFTISRDNAKNTVYLQMNSLKPEDTAVYYCNAGAGRWRARQWHDYWGQGTQVTVSS | low polyreactivity
QVQLVESGGGLVQAGGSLRLSCAASGIIFTYYAMGWYRQAPGKERELVAAISYRGGSTYADSVKGRFTISRDNAKNTVSLQMNSLKPEDTAVYYCAAQRWYVYGQKYHYGYWGQGTQVTVSS | high polyreactivity
QVQLVESGGGLVQAGCSLRLSCAASGITFTYYAMGWYRQAPGKERELVAAINTGGNTNYADSVKGRFTISRDYAKNSVYLQMNSLKPEDTAVYYCAAYWYYYWWYDYWGQGTQVSVSS | high polyreactivity
QVQLVESGGGLVQAGGSLRLSCAASGRTFGTNALGWYRQAPGKERELVASIDLSADSTYYADSVKGRFTISRDNAKKTVYLQMNSLKPEDTAVYYCNKDGYPWPPNLDYWGQGTQVTVSS | low polyreactivity
QVQLVESGGGLVQAGGSLRLSCAASGIIFYFYAMGWYRQAPGKERELVAAISRGGSTKYADSVKGRFTISRDNAKNTVYLQMNSLKPEDTAVYYCAATRRRPSEYYYWGPGTQVTVSS | high polyreactivity
QVQLVESGGGLVQAGGSLRLSCAASGNIITTYAMGWYRQAPGKERELVAAISRSGGRTNYADSVKGRFTISRDNAKNTVYLQMNSLKPEDTAVYYCAADGVPGRAVDYEYWGQGTQVTVSS | high polyreactivity
QVQLVESGGGLVQAGGSLRLSCAPSGSIFGVYAMGWYRQAPGKERELVDTISWSAGSTYYADSVKGRFTISRDNAKNTVYLQMNSLKPVDTAVYYCGAGVRWLGLYDLFTFDYWGQGTQVTVSS | low polyreactivity
QVQLVESGGGLVQAGGSLRLSCAASGLIFYLYAMGWYRQAPGKEREFVAGINWSGGNTYADSVKGRFTISRDNAKNTVYLQLNSLKPEDTAVYYCAADSLIYTHPYQYDYWGQGTQVTVSS | low polyreactivity
QVQLVESGGGLVQAGGSLRLSCAASGSTFSPYGMGWYRQAPGKERELVAAIRGRGGNTYYADSVKGRFTISRDNAKNTVYLQMNSLKPEDTAVYYCAAQSFAQYGWRYGDWGQGTQVTVSS | high polyreactivity
QVQLVDSGGGLVQAGGSLRLSCAASGRIFPWYAMGWYRQAPGKEMELVAAINWRAGLTYYADSVKGRFTISRDYAKNTVYLQMNSLKPEDTAVYYCNARSGRGQAYGYWGQGTQVSVSS | high polyreactivity
QVQLVESGGGLVQAGGSLRLSCAASGSTFRYNTMGWYRQAPGKEMELVARITSVGSTNYADSVKGRFTISRDNAKNTVYFQMNSLKPEDTAVYYCATTRPIRRTSARYNYWGQGTQVTVSS | low polyreactivity
QVQLVESGGGLVQAGGSLRLSCAASGFTSKGYAMGWYRQAPGKERELVATIRSRGGGTYYADSVKGRFTISRDNAKNTVYLQMNSLKPEDTAVYYCAAERKNKYDYWGQGTQVTVSS | high polyreactivity
QVQLVDSGGGLDQAGGSLRLSCASSGSSSNTMLWDGKDRRLGKKGSWSSTNYADSVKGRFTISRDNAKNTVYLQMNSLKPEDTAVYYCNAYHDYITEFNYWGQGTQVTVSS | low polyreactivity
QVQLVESGGGLVQAGGSLRLSCAASGLIIGYNAMGLYRQAPGKERELVAAISRSGTHTYYADSVKGRFTISRDNAKNTFNLQMNSLIPEDTAVYYCNATNRRWHRPYSTYWYYYWGQGTQVTVSS | high polyreactivity
QVQLVESGGGLVQAGGSLRLSCAASGLTFSNYAMGWYRQAPGKERELVAAISASGGSTYYADSVKGRFTISRDNAKNTVYLQMNSLKPEDTAVYYCAAATTRPVYPANDDYWGQGTQVTVSS | low polyreactivity
QVQHVESGGGLVQAGGSLRLSCAASASTFAWYPMGWYRQAPGKERELVAAITRDGSTYYADSVKGRFTISRDNAKNTVYLQMNSLKPEDTAVYYCAADLSYWRGGHSRNYWGQGTQVTVSS | low polyreactivity
QVQLVESGGGLVQAGGSLRLSCAASGRIFTKYAMGWYRQAPGKDRELVAAISYRGGSTYYADSVKGRFTISRDNAQNTVYLQMNSLKPEDTAVYYCATSWTPNYFVTSDYWGQGTQVTVSS | high polyreactivity
QDQLVESGGGLVQAGGSLRLSCAASGNIIRKYAMGWYRQAAGKEREFVAAISSSGGRTYYADSVKGRFTISRDNAKNTVYLQMNSLKPEDTAVYYCAAEDWSYYDYDYWGQGTQVTVSS | high polyreactivity
QVQLVESGGGLVQAGGSLRLSCAASGRIIGYYAKGWYRQAPGKERELVAAISYSGGATYYADSVKGRFTISRDNEMNTVYLQSKSLKPEVTAVYYCAAQGRWPQRYGYWGQGTQVTVSS | high polyreactivity
